Here are results for four substances from publication PMC5923263.

Experiment [1] addresses His-tagged Sll1961 C124A (Synechocystis sp. PCC 6803). Put plainly: SEC; His-Sll1961 reduced with 100 mM DTT for 15 min at room temperature, 60 μM; Superdex 75 increase 3.2/300 or Superdex 200 increase 3.2/300; 20 mM sodium phosphate (pH 7.4), 150 mM NaCl, 3 mM DTT; standards of 150, 66 and 44 kDa. A general note: SEC sorts molecules by how far they enter the pores of the column.

Experiment [2] shares this target. Put plainly: SEC-MALS; size exclusion chromatography with static light scattering (Viscotek TDA 305), Superdex 75 increase 3.2/300; BSA as standard.
Experiment [3] deals with His-tagged Sll1961 (wild type) (Synechocystis sp. PCC 6803). Put plainly: SEC; His-Sll1961 reduced with 100 mM DTT for 15 min at room temperature, 60 μM; Superdex 75 increase 3.2/300 or Superdex 200 increase 3.2/300; 20 mM sodium phosphate (pH 7.4), 150 mM NaCl, 3 mM DTT; standards of 150, 66 and 44 kDa.
Experiment [4] has the same target. Description: SEC-MALS; size exclusion chromatography with static light scattering (Viscotek TDA 305), Superdex 75 increase 3.2/300; BSA as standard.
The target of experiment [5] is His-tagged Sll1961 C307A (Synechocystis sp. PCC 6803). Description: SEC; His-Sll1961 reduced with 100 mM DTT for 15 min at room temperature, 60 μM; Superdex 75 increase 3.2/300 or Superdex 200 increase 3.2/300; 20 mM sodium phosphate (pH 7.4), 150 mM NaCl, 3 mM DTT; standards of 150, 66 and 44 kDa.
For experiment [6] the target is unchanged. Description: SEC-MALS; size exclusion chromatography with static light scattering (Viscotek TDA 305), Superdex 75 increase 3.2/300; BSA as standard.
For experiment [7], the target named is His-tagged Sll1961 C229A (Synechocystis sp. PCC 6803). Put plainly: SEC; His-Sll1961 reduced with 100 mM DTT for 15 min at room temperature, 60 μM; Superdex 75 increase 3.2/300 or Superdex 200 increase 3.2/300; 20 mM sodium phosphate (pH 7.4), 150 mM NaCl, 3 mM DTT; standards of 150, 66 and 44 kDa.
Experiment [8] has the same target. Put plainly: SEC-MALS; size exclusion chromatography with static light scattering (Viscotek TDA 305), Superdex 75 increase 3.2/300; BSA as standard.

In the case of “His-tagged Sll1961 C124A (natural protein)”, the stoichiometry N in experiment [1] and in experiment [2] was 2 throughout.

In the case of “His-tagged Sll1961 (wild type) (natural protein)”, the stoichiometry N in experiment [3] and in experiment [4] was 2 throughout.

“His-tagged Sll1961 C307A (natural protein)”: the stoichiometry N in experiment [5] and in experiment [6] was 2 each time.

“His-tagged Sll1961 C229A (natural protein)”: the stoichiometry N in experiment [7] and in experiment [8] was 2 in each case.

One may read the stoichiometry N as the number of molecules, sites or subunits per partner or assembly.
